{"source": "patent US20200123264A1", "about": "(Regeneron, published 2020)", "binders": {"B1": {"name": "H4H18462P2 (antibody, human IgG4, V domains shown)", "VH": "EVQLVESGGDLVQPGRSLRLSCAASGFTFSSFAMSWVRQAPGRGLEWVSSLSDSGDNTYYADSVKGRFTISRDNSKNTLYLQMNNLRAEDTAVYYCAKDLFSGWLFHGFDVWGQGTMVTVSS", "VL": "not shown", "notes": "H4H prefix: human IgG4 Fc"}, "B2": {"name": "H4H17322P2 (antibody, human IgG4, V domains shown)", "VH": "QLQLQESGPGLVKPSETLSLTCTVSGASISSSRFYGGWIRQPPGKGLEWIGDIYYSGNTYYNPSLQSRVTISVDTSKNQFSLKLSSVTAADTAVYYCARHLMITFGGLIVEGFDIWGQGTMVTVSS", "VL": "not shown", "notes": "H4H prefix: human IgG4 Fc"}, "B3": {"name": "H4H18440P2 (antibody, human IgG4, V domains shown)", "VH": "QVQLVESGGGMVKPGGSLRLSCAASGFTFSDYYMSWIRQAPGKGLEWISHISITGSTIYYADSVKGRFTISRDNAKNSLYLEMNRLRDEDTAVYYCTRDEPDIVLVRYGMDVWGQGTTVTVSS", "VL": "not shown", "notes": "H4H prefix: human IgG4 Fc"}, "B4": {"name": "H4H18437P2 (antibody, human IgG4, V domains shown)", "VH": "QVQLVESGGGVVQPGRSLRLSCAASGFTFSSYGIHWVRQAPGKGLEWVAVISYDGNNKYYADSVKGRFTISRDNSKNTLYLQMNSLRAEDTAVYYCAKDLFLEWLFHGMGVWGQGTTVTVSS", "VL": "not shown", "notes": "H4H prefix: human IgG4 Fc"}, "B5": {"name": "H4H18464P2 (antibody, human IgG4, V domains shown)", "VH": "QVQLVQSGPEVKKPGASVKVSCKGSGYTFSWYGISWIRQAPGHGLEWMGWISASSGNTRFAQKVQGRLTMTTDTSTSTAYMELRSLRSDDTAVYYCARTGTRPFDYWGQGTLVTVSS", "VL": "not shown", "notes": "H4H prefix: human IgG4 Fc"}, "B6": {"name": "H4H18457P2 (antibody, human IgG4, V domains shown)", "VH": "EVQLVESGGSVVRPGESLRLSCAASGFTFDDYGMSWVRQAPGKGLEWVSGISWNGGITVYADSVKGRFTVSRDNAKNSLYLQMNSLRAEDTALYHCARARYGGADYWGQGTLVTVSS", "VL": "not shown", "notes": "H4H prefix: human IgG4 Fc"}, "B7": {"name": "H4H18439P2 (antibody, human IgG4, V domains shown)", "VH": "QLQLQESGPGLVKPSETLSLTCIVSGGDITSSSYYWNWIRQPPGKGLEWIGNIYYSGSTNYNPSLKSRVTISIDTSKSQFSLKLRSVTAADTAVYYCARLLRYFDWSKGYLDYWGQGTLVTVSS", "VL": "not shown", "notes": "H4H prefix: human IgG4 Fc"}, "B8": {"name": "H4H18466P2 (antibody, human IgG4, V domains shown)", "VH": "EVQLVESGGGLVQPGGSLRLSCTASGFTFSSYGLHWVRQAPGKGLEYVSSINHNGGSKYYADSVKGRFTISRDNSKNTLFLQMGSLKTEDMAVYYCARDLFLEWLFHGFDIWGQGTMVTVSS", "VL": "not shown", "notes": "H4H prefix: human IgG4 Fc"}}}
{"target": "T1, human LEPR CRH1 (D1,D2,D3)-MMH (human, UniProt P48357 22-427, limits assumed)", "T1 construct": "domain: CRH1-Ig (D1,D2,D3); Transiently expressed, captured from supernatant on anti-myc beads; also called CRH1-Ig (D1, D2, D3)", "T1 sequence (looked up)": "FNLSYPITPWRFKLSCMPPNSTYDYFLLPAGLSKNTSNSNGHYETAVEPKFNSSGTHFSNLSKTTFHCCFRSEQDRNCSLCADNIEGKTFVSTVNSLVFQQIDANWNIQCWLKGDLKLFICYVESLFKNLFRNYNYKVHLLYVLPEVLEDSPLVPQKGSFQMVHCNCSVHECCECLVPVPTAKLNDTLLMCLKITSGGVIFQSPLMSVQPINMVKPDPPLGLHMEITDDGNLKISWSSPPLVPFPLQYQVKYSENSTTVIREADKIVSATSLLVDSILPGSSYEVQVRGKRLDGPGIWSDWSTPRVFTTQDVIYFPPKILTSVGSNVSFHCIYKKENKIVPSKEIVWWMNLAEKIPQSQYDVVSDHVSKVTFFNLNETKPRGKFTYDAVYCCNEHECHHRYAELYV", "experiment": "Luminex, myc-captured LEPR protein on beads, Ab 5 µg/mL", "method": "Aliquots of microspheres with immobilized anti-myc monoclonal antibodies, prepared as described above, were added individually to 1 mL of the each of these protein supernatants. The microspheres were gently mixed, incubated for two hours at 25° C., washed twice with 1 mL of DBPS, centrifuged to remove the supernatant and finally resuspended in 1 mL of DPBS buffer. Forty eight μL of anti-myc IgG coupled microspheres from individual reactions with full length human LEPR and with each of the human LEPR domain proteins were withdrawn and mixed together in 3.6 mL of PBS+20 mg/mL BSA+0.05% sodium azide (blocking buffer).\nFrom this mixed pool, 75 μL of microspheres were plated per well on a 96 well filter plate (Millipore, Cat. No: MSBVN1250) and mixed with 25 μL of individual anti-human LEPR monoclonal antibodies (0.5 or 5 μg/mL), incubated for two hours at 25° C. and then washed twice with 200 μL of DPBS with 0.05% Tween 20 (washing buffer). […] After 30 minutes, the samples were washed twice with 200 μL of washing buffer and resuspended in 150 μL of wash buffer. The Median Fluorescence intensity (MFI) of the microspheres was measured in a Luminex Analyzer.", "units": {"Luminex MFI": "MFI"}}
{"binder": "B1", "Luminex MFI": 3960}
{"binder": "B2", "Luminex MFI": 31}
{"binder": "B3", "Luminex MFI": 8240}
{"binder": "B4", "Luminex MFI": 34}
{"binder": "B5", "Luminex MFI": 5560}
{"binder": "B6", "Luminex MFI": 31}
{"binder": "B7", "Luminex MFI": 8020}
{"target": "T2, extracellular domain of human LEPR with an N-terminal myc-myc tag, GPI-anchored on HEK293 cells (human, UniProt P48357 22-839, GPI anchor at the C-terminus ; A GPI anchor is attached at the C end through a carboxypeptidase M derived peptide. The protein is displayed on HEK293 cells.)", "T2 construct": "also called HEK293/hLEPR-GPI; Mycx2-hLEPR(Ecto)-GPI", "T2 sequence": "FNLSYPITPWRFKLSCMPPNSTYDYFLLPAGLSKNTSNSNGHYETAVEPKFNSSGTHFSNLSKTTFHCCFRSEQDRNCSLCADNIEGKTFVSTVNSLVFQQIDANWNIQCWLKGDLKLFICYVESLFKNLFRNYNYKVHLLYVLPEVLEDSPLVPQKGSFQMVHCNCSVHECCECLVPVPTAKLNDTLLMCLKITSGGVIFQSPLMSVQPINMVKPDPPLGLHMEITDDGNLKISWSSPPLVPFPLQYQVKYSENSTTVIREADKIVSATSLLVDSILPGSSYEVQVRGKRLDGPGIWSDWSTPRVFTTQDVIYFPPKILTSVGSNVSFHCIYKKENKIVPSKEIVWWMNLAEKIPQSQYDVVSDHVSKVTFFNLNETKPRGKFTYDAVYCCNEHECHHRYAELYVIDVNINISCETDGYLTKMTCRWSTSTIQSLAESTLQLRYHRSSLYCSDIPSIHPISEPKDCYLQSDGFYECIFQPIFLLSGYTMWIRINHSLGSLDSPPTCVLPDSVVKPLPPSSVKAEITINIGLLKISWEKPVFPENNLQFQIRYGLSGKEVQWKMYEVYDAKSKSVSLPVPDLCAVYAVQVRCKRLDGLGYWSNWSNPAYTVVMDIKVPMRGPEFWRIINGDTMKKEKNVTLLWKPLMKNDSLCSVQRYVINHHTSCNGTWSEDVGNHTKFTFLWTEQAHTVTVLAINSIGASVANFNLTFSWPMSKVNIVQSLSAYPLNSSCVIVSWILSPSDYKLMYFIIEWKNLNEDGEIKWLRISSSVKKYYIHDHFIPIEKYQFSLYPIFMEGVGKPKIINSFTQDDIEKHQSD", "experiment": "FACS, 10 nM Ab, HEK293/hLEPR-GPI cells, no added Leptin", "method": "For the FACS analysis, HEK293 parental cells and HEK293/hLEPR-GPI cells were dissociated and plated onto 96-well v-bottom plates at 5×10⁵ cells/well in PBS containing 2% FBS (FACS buffer). […] Cells were subsequently fixed using BD CytoFix™ (Becton Dickinson, #554655), filtered, and analyzed on a HyperCyt Flow Cytometer (Beckman Coulter). Unstained and secondary antibody alone controls were also tested for all cell lines. The results were analyzed using ForeCyt (IntelliCyt) and FlowJo version 10 softwares to determine the geometric means of fluorescence for viable cells. The geometric mean of fluorescence for each sample was then normalized to the geometric mean of unstained cells to obtain relative binding per condition referred to as “binding ratios”, and these binding ratios were recorded in Table 14 for each antibody tested.", "units": {"Binding Ratio (normalized to unstained)": "fold"}}
{"binder": "B1", "Binding Ratio (normalized to unstained)": 1170}
{"binder": "B3", "Binding Ratio (normalized to unstained)": 1640}
{"binder": "B5", "Binding Ratio (normalized to unstained)": 2320}
{"binder": "B8", "Binding Ratio (normalized to unstained)": 824}
{"binder": "B6", "Binding Ratio (normalized to unstained)": 3190}
{"binder": "B7", "Binding Ratio (normalized to unstained)": 1530}
{"target": "T3, extracellular domain portion of LEPR protein expressed with a C-terminal human Fc tag (human)", "T3 construct": "Dimeric construct; also called hLEPR.hFc; hLEPR-hFc", "experiment": "competition ELISA, 500 nM Ab, 10 nM hLEPR-hFc binding to coated hLeptin", "method": "These antibody-protein or protein-protein complexes were then incubated for 1.5 hour at room temperature (RT). […] Samples were developed with a TMB solution (BD Biosciences, #555214; substrate A and B mixed at 1:1 ratio as per manufacturer's instructions) to produce a colorimetric reaction and then neutralized with 1M sulfuric acid before measuring absorbance at 450 nm on a Victor X5 plate reader. Data analysis was performed using a sigmoidal dose-response model within Prism™ software (Graph Pad).", "units": {"% blockade": "%"}}
{"binder": "B1", "% blockade": 14}
{"binder": "B2", "% blockade": 13}
{"binder": "B3", "% blockade": 3}
{"binder": "B4", "% blockade": 9}
{"binder": "B5", "% blockade": -5}
{"binder": "B8", "% blockade": 2}
{"binder": "B6", "% blockade": 4}
{"binder": "B7", "% blockade": -1}
